The values below come from the supplement of paper PMC5998384.

The test system of data set [1] is HeLa Kyoto. As to the kind of experiment: solubility change mitosis vs G1/S (difference of NP-40 vs SDS log2 ratios) (log2 ratio difference); higher = more soluble in mitosis.
The subject of data set [2] is HeLa Kyoto. Briefly: thermal stability score vs G1/S (z-score of summed log2 fold changes over temperatures); higher = more thermally stable than in G1/S.
Data set [3] relates to HeLa Kyoto. As to the kind of experiment: solubility in G1/S (NP-40 vs SDS abundance) (log2 ratio); higher = more soluble. To be noted: cell cycle stage: G1/S.
For data set [4], the system named is HeLa Kyoto. Briefly: melting temperature (median over replicates), in situ; higher = more thermally stable.
Where [5] appears, read: cell cycle stage: early G1 (4.5 h after nocodazole release).
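For melting temperature (median over replicates), in situ in this document: HeLa Kyoto cells synchronized by double thymidine or nocodazole block, proteins quantified by TMT10plex mass spectrometry, three independent biological replicates.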
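For solubility change mitosis vs G1/S (difference of NP-40 vs SDS log2 ratios) in this document: synchronized HeLa Kyoto cells (double thymidine block for G1/S, nocodazole release for mitosis), protein amounts in NP-40 versus SDS lysates quantified by mass spectrometry, three biological replicates.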
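For solubility in G1/S (NP-40 vs SDS abundance) in this document: HeLa Kyoto cells arrested at G1/S by double thymidine block, proteins quantified by TMT10plex mass spectrometry in mild NP-40 versus SDS extracts, three biological replicates.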
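For thermal stability score vs G1/S (z-score of summed log2 fold changes over temperatures) in this document: synchronized HeLa Kyoto cells, proteins quantified by TMT10plex mass spectrometry, three biological replicates, mitosis taken 0.5 h after nocodazole release, G1/S directly after double thymidine block.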

Take “MSQTAMSETYDFLFKFLVIGNAGTGKSCLLHQFIEKKFKDDSNHTIGVEFGSKIINVGGKYVKLQIWDTAGQERFRSVTRSYYRGAAGALLVYDITSRETYNALTNWLTDARMLASQNIVIILCGNKKDLDADREVTFLEASRFAQENELMFLETSALTGENVEEAFVQCARKILNKIESGELDPERMGSGIQYGDAALRQLRSPRRAQAPNAQECGC [RAB4A]”: in the data set on HeLa Kyoto [1], the “solubility change mitosis (log2)” value was -0.0763. Moreover, the thermal stability score with HeLa Kyoto [2] (setting [5]) is -3.03; with HeLa Kyoto [2] (cell cycle stage: mitosis), -3.68. In addition, the “solubility in G1/S (log2)” value in the data set with HeLa Kyoto [3] worked out at 0.0401. In addition, the figures for the melting temperature with HeLa Kyoto [4] (cell cycle stage: G1/S) and with HeLa Kyoto [4] (cell cycle stage: mitosis) were 59.5 °C and 57.6 °C, respectively.

Regarding “MSRCAQAAEVAATVPGAGVGNVGLRPPMVPRQASFFPPPVPNPFVQQTQIGSARRVQIVLLGIILLPIRVLLVALILLLAWPFAAISTVCCPEKLTHPITGWRRKITQTALKFLGRAMFFSMGFIVAVKGKIASPLEAPVFVAAPHSTFFDGIACVVAGLPSMVSRNENAQVPLIGRLLRAVQPVLVSRVDPDSRKNTINEIIKRTTSGGEWPQILVFPEGTCTNRSCLITFKPGAFIPGVPVQPVLLRYPNKLDTVTWTWQGYTFIQLCMLTFCQLFTKVEVEFMPVQVPNDEEKNDPVLFANKVRNLMAEALGIPVTDHTYEDCRLMISAGQLTLPMEAGLVEFTKISRKLKLDWDGVRKHLDEYASIASSSKGGRIGIEEFAKYLKLPVSDVLRQLFALFDRNHDGSIDFREYVIGLAVLCNPSNTEEIIQVAFKLFDVDEDGYITEEEFSTILQASLGVPDLDVSGLFKEIAQGDSISYEEFKSFALKHPEYAKIFTTYLDLQTCHVFSLPKEVQTTPSTASNKVSPEKHEESTSDKKDD [LPCAT2]”, in the data set with HeLa Kyoto [1], the “solubility change mitosis (log2)” value was -0.289. The thermal stability score with HeLa Kyoto [2] (setting [5]) was found to be 1.39; with HeLa Kyoto [2] (cell cycle stage: mitosis) it was 1.37. Moreover, the “solubility in G1/S (log2)” value in the data set on HeLa Kyoto [3] is -0.00721. Also, the melting temperature in the data set on HeLa Kyoto [4] (cell cycle stage: G1/S) worked out at 51.3 °C; with HeLa Kyoto [4] (cell cycle stage: mitosis) it was 52.5 °C.

Regarding “MSRFVQDLSKAMSQDGASQFQEVIRQELELSVKKELEKILTTASSHEFEHTKKDLDGFRKLFHRFLQEKGPSVDWGKIQRPPEDSIQPYEKIKARGLPDNISSVLNKLVVVKLNGGLGTSMGCKGPKSLIGVRNENTFLDLTVQQIEHLNKTYNTDVPLVLMNSFNTDEDTKKILQKYNHCRVKIYTFNQSRYPRINKESLLPVAKDVSYSGENTEAWYPPGHGDIYASFYNSGLLDTFIGEGKEYIFVSNIDNLGATVDLYILNHLMNPPNGKRCEFVMEVTNKTRADVKGGTLTQYEGKLRLVEIAQVPKAHVDEFKSVSKFKIFNTNNLWISLAAVKRLQEQNAIDMEIIVNAKTLDGGLNVIQLETAVGAAIKSFENSLGINVPRSRFLPVKTTSDLLLVMSNLYSLNAGSLTMSEKREFPTVPLVKLGSSFTKVQDYLRRFESIPDMLELDHLTVSGDVTFGKNVSLKGTVIIIANHGDRIDIPPGAVLENKIVSGNLRILDH [UGP2]”, the “solubility change mitosis (log2)” value with HeLa Kyoto [1] is -0.072. The thermal stability score came to 0.682 with HeLa Kyoto [2] (setting [5]) and 0.921 in the data set on HeLa Kyoto [2] (cell cycle stage: mitosis). In addition, the “solubility in G1/S (log2)” value in the data set with HeLa Kyoto [3] came out at 0.158. Besides, the melting temperature in the data set on HeLa Kyoto [4] (cell cycle stage: G1/S) was 55.9 °C; in the data set on HeLa Kyoto [4] (cell cycle stage: mitosis), 56 °C.

On to “MSRLGALGGARAGLGLLLGTAAGLGFLCLLYSQRWKRTQRHGRSQSLPNSLDYTQTSDPGRHVMLLRAVPGGAGDASVLPSLPREGQEKVLDRLDFVLTSLVALRREVEELRSSLRGLAGEIVGEVRCHMEENQRVARRRRFPFVRERSDSTGSSSVYFTASSGATFTDAESEGGYTTANAESDNERDSDKESEDGEDEVSCETVKMGRKDSLDLEEEAASGASSALEAGGSSGLEDVLPLLQQADELHRGDEQGKREGFQLLLNNKLVYGSRQDFLWRLARAYSDMCELTEEVSEKKSYALDGKEEAEAALEKGDESADCHLWYAVLCGQLAEHESIQRRIQSGFSFKEHVDKAIALQPENPMAHFLLGRWCYQVSHLSWLEKKTATALLESPLSATVEDALQSFLKAEELQPGFSKAGRVYISKCYRELGKNSEARWWMKLALELPDVTKEDLAIQKDLEELEVILRD [RMDN3]”, for which the “solubility change mitosis (log2)” value in the data set with HeLa Kyoto [1] is -0.102. Further, the thermal stability score in the data set with HeLa Kyoto [2] (setting [5]) is 0.252; in the data set with HeLa Kyoto [2] (cell cycle stage: mitosis), -0.0237. The “solubility in G1/S (log2)” value in the data set on HeLa Kyoto [3] is -0.0304. In addition, the melting temperature in the data set on HeLa Kyoto [4] (cell cycle stage: G1/S) came to 51.1 °C; in the data set with HeLa Kyoto [4] (cell cycle stage: mitosis), 50.8 °C.
